In publication PMC10991452, “Bioeconomic production of high-quality chitobiose from chitin food wastes using an in-house chitinase from Vibrio campbellii” (Bioresources and Bioprocessing, 2022):

Substrate: CC(=O)N[C@H]1[C@H](Oc2ccc([N+](=O)[O-])cc2)O[C@H](CO)[C@@H](O[C@@H]2O[C@H](CO)[C@@H](O)[C@H](O)[C@H]2NC(C)=O)[C@@H]1O
Assay: purified protein
Assay type: biochemical, Vibrio harveyi
Settings: 0.1 M sodium acetate pH 5.5, 30 °C, 10 min, 0-500 µM substrate

B1: VhChiA (Vibrio harveyi) (protein)
chain: APTAPSIDMYGSNNLQFSKIELAMETTSGYNDMVKYHELAKIKVKFNQWSGTSGDTYNVYFDGVKVATGAITGSQTTASFEYGQGGLYQMEIEACDATGCSKSAPVEITIADTDGSHLKPLTMNVDPNNKSYNTDPSIVMGTYFVEWGIYGRDYTVDNMPVDNLTHILYGFIPICGPNESVKSVGGNSFNALQTACRGVNDYEVVIHDPWAAYQKSFPQAGHEYSTPIKGNYAMLMALKQRNPDLKIIPSIGGWTLSDPFYDFVDKKNRDTFVASVKKFLKTWKFYDGVDIDWEFPGGGGAAADKGDPVNDGPAYIALMRELRVMLDELEAETGRTYELTSAIGVGYDKIEDVDYADAVQYMDYIFAMTYDFYGGWNNVPGHQTALYCGSFMRPGQCDGGGVDENGEPYKGPAYTADNGIQLLLAQGVPANKLVLGTAMYGRGWEGVTPDTLTDPNDPMTGTATGKLKGSTAQGVWEDGVIDYKGIKSFMLGANNTGINGFEYGYDAQAEAPWVWNRSTGELITFDDHRSVLAKGNYAKSLGLAGLFSWEIDADNGDILNAMHEGMAGGVVTPPNR
Km: 216 µM
